Residue numbers refer to the chain shown, from its start.
B1: GT29-20: Ginseng UDP-glycosyltransferase, 442 amino acids, SEQ ID NO: 118 (protein)
chain: MDNQKGRISIALLPFLAHGHISPFFELAKQLAKRNCNVFLCSTPINLSSIKDKDSSASIKLVELHLPSSPDLPPHYHTTNGLPSHLMLPLRNAFETAGPTFSEILKTLNPDLLIYDFNPSWAPEIASSHNIPAVYFLTTAAASSSIGLHAFKNPGEKYPFPDFYDNSNITPEPPSADNMKLLHDFIACFERSCDIILIKSFRELEGKYIDLLSTLSDKTLVPVGPLVQDPMGHNEDPKTEQIINWLDKRAESTVVFVCFGSEYFLSNEELEEVAIGLEISTVNFIWAVRLIEGEKKGILPEGFVQRAGDRGLVVEGWAPQARILGHSSTGGFVSHCGWSSIAESMKFGVPVIAMARHLDQPLNGKLAAEVGVGMEVVRDENGKYKREGIAEVIRKVVVEKSGEVIRRKARELSEKMKEKGEQEIDRALEELVQICKKKKDEQ
modifications: misc_feature - GT29-20; Panax ginseng
B2: GT29-21: Ginseng UDP-glycosyltransferase, 442 amino acids, SEQ ID NO: 120 (protein)
chain: B1 chain with H18N, A307V, T329I
modifications: misc_feature - GT29-21; Panax ginseng
B3: GT29-43: Ginseng UDP-glycosyltransferase, 442 amino acids, SEQ ID NO.: 96 (protein)
chain: B1 chain with R249M, A307V
modifications: Panax ginseng
B4: GT29-22: Ginseng UDP-glycosyltransferase, 442 amino acids, SEQ ID NO: 122 (protein)
chain: B1 chain with A307V, S344I
modifications: misc_feature - GT29-22; Panax ginseng
B5: GT29-36: Ginseng UDP-glycosyltransferase, 442 amino acids, SEQ ID NO.: 90 (protein)
chain: B1 chain with T281M, I298V, A307V, I405M, Q422E, L428V, E441A
modifications: Panax ginseng
B6: GT29-37: Ginseng UDP-glycosyltransferase, 442 amino acids, SEQ ID NO.: 92 (protein)
chain: B1 chain with K5E, D52N, L88V, R91I, A307V
modifications: Panax ginseng
B7: GT29-23: Ginseng UDP-glycosyltransferase, 442 amino acids, SEQ ID NO: 124 (protein)
chain: MDNQEGRISIALLPFLAHGHISPFFELAKQLAKRNCNVFLCSTPINLSSIKNKDSSASIKLVELHLPSSPDLPPHYHTTNGLPSHLMVPLINAFETAGPTFSEILKTLNPDLLIYDFNPSWAPEIASSHNIPAVYFLTTAAASSSIGLHAFKNPGEKYPFPDFYDNSNNTPEPPSADNMKLLHDFIACFERSCDIILIKSFIELEGKYIDLLSTLSDKTLVPVGPLVQDPMGHNEDPKTEQIINWLDKRAESTVVFVCFGSEYFLSNEELEEVAIGLEISMVNFIWAVRLIEGEKKGVLPEGFVQRVGDRGLVVEGWAPHARILGHSSTGGFVSHCGWSSIAESMKFGVPVIAMARHLDQPLNGKLAAEVGVGMEVVRDENGKYKREGIAEVIRKVVVEKSGEVMRRKARELSEKMKEKGEEEIDRAVEELVQICKKKKDAQ
modifications: misc_feature - GT29-23; Panax ginseng
B8: GT29-19: Ginseng UDP-glycosyltransferase, 442 amino acids, SEQ ID NO: 116 (protein)
chain: MDNQEGRISIALLPFLAHGHISPFFELAKQLAKRNCNVFLCSTPINLSSIKNKDSSASIKLVELHLPSSPDLPPHYHTTNGLPSHLMVPLINAFETAGPTFSEILKTLNPDLLIYDFNPSWAPEIASSHNIPAVYFLTTAAASSSIGLHAFKNPGEKYPFPDFYDNSNNTPEPPSADNMKLLHDFIACFERSCDIILIKSFIELEGKYIDLLSTLSDKTLVPVGPLVQDPMGHNEDPKTEQIINWLDKRAESTVVFVCFGSEYFLSNEELEEVAIGLEISMVNFIWAVRLIEGEKKGVLPEGFVQRVGDRGLVVEGWAPQARILGHSSTGGFVSHCGWSSITESMKFGVPVIAMARHFDQPLNAKLAAEVGVGMEVVRDENGKYKREDIAGVIRKVVVEKSGEVIRRKARELSEKMKEIGEQLIDRAVEELVQICKKKKDEQ
modifications: misc_feature - GT29-19; Panax ginseng
B9: GT29-42: Ginseng UDP-glycosyltransferase, 444 amino acids, SEQ ID NO.: 94 (protein)
chain: MDNQEGRISIALLPFLAHGHISPFFELAKQLAKRNCNVFLCSTPINLSSIKNKDSSASIKLVELHLPSSPDLPPHYHTTNGLPSHLMVPLINAFETAGPTFSEILKTLNPDLLIYDFNPSWAPEIASSHNIPAVYFLTTAAASSSIGLHAFKNPGEKYPFPDFYDNSNNTPEPPSADNMKLLHDFIACFERSCDIILIKSFIELEGKYIDLLSTLSDKTLVPVGPLVQDPMGHNEDPKTEQIINWLDKRAESTVVFVCFGSEYFLSNEELEEVAIGLEISMVNFIWAVRLIEGEKKGVLPEGFVQRVGDRGLVVEGWAPQARILGHSSTGGFVSHCGWSSIMESVKFGVPVIAMARHLDQPLNAKLAAEVGVGMEVMRDENGKYKREAIAEVIRKVVMEKNGEVMRRKARELSEKMKVKGEQEIGRAVEELVQICKKKKQHAQY
modifications: Panax ginseng
B10: GT29-33: Ginseng UDP-glycosyltransferase, 448 amino acids, SEQ ID NO: 6 (protein)
chain: MDIEKGRISIVMLPFLAHGHISPFFELAKHLSKRNCNIFLCSTPINLSSIKNRVSDKDSSASIKLVELHLPSSPDLPPHYHTTNGLPSHLMVPLRNAFETAAPTFSEILKTLNPDLLIYDFNPSWAPEIASSHNIPAVYFLTSAAATSSMGLHAFKNSGEKYPFPDFYDNSNITPEPPSADKMKLFHDFVACFKRSCDIILIKSFRELEGKYIDFLSTLSKKTLVPVGPLVQDPMGHDEDPKTGHLINWLDKRAESTVVFVCFGSEYFPSNEELEELAIGLEISMVSFILAVRFPEGEKKGILPEGFVQRVGDRGLVVEGWAPQSRILGHSSTGGFVSHCGWSSIMESVKFGVPVIAMARHLDQPLNAKLAAEVGVGMEVMRDENGKYKREAIAEVIRKVVMEKNGEVMRRKARELSEKMKVKGEQEIGRAVEELVQICKKKKQHAQY
modifications: misc_feature - GT29-33; Panax ginseng

assay: In vitro transglycosylation at C-3, Rd as glycosyl acceptor, UDP-xylose as donor; assay type: biochemical; details: crude enzyme (E. coli lysate supernatant); TLC, FIG. 14

Molecule	product formation from Rd and UDP-xylose (replacement of second glucose at C-3 with xylose)
B1	can all catalyze the replacement of the second glucose at C-3 position of Rd with xylose
B2	can all catalyze the replacement of the second glucose at C-3 position of Rd with xylose
B3	can all catalyze the replacement of the second glucose at C-3 position of Rd with xylose
B4	can all catalyze the replacement of the second glucose at C-3 position of Rd with xylose
B5	can all catalyze the replacement of the second glucose at C-3 position of Rd with xylose
B6	can all catalyze the replacement of the second glucose at C-3 position of Rd with xylose
B7	can all catalyze the replacement of the second glucose at C-3 position of Rd with xylose
B8	can all catalyze the replacement of the second glucose at C-3 position of Rd with xylose
B9	can all catalyze the replacement of the second glucose at C-3 position of Rd with xylose

assay: In vitro transglycosylation at C-20, CK as glycosyl acceptor, UDP-arabinose as donor; assay type: biochemical; details: crude enzyme (E. coli lysate supernatant); TLC, FIG. 17

Molecule	product formation from CK and UDP-arabinose (Ginsenoside F3)
B10	can catalyze the first glycosyl of C-20 of CK to extend an arabinosyl to generate Ginsenoside F3

assay: In vitro transglycosylation at C-3, Rh2 as glycosyl acceptor, UDP-glucose as donor; assay type: biochemical; details: crude enzyme (E. coli lysate supernatant); TLC, FIG. 13, FIG. 15
Text: (§1) Cell lysate of recombinant E. coli with empty vector pET28a was used as a control.

Molecule	product formation from Rh2 and UDP-glucose (Rg3)
B1	can all catalyze the extension of a glucosyl at the C-3 glycosyl of Rh2 to generate Rg3
B2	can all catalyze the extension of a glucosyl at the C-3 glycosyl of Rh2 to generate Rg3
B3	can all catalyze the extension of a glucosyl at the C-3 glycosyl of Rh2 to generate Rg3
B4	can all catalyze the extension of a glucosyl at the C-3 glycosyl of Rh2 to generate Rg3
B5	can all catalyze the extension of a glucosyl at the C-3 glycosyl of Rh2 to generate Rg3
B6	can all catalyze the extension of a glucosyl at the C-3 glycosyl of Rh2 to generate Rg3
B7	can all catalyze the extension of a glucosyl at the C-3 glycosyl of Rh2 to generate Rg3
B8	can all catalyze the extension of a glucosyl at the C-3 glycosyl of Rh2 to generate Rg3
B9	can all catalyze the extension of a glucosyl at the C-3 glycosyl of Rh2 to generate Rg3

assay: In vitro transglycosylation at C-20, Rd as glycosyl acceptor, UDP-glucose as donor; assay type: biochemical; details: crude enzyme (E. coli lysate supernatant); TLC/HPLC, FIG. 2, 3, 11
Text: as §1

Molecule	product formation from Rd and UDP-glucose (Rb1)
B10	can catalyze the formation of Rb1
